Measured values taken from patent US20180187196, “INHIBITORS OF DEK PROTEIN AND RELATED METHODS” (THE REGENTS OF THE UNIVERSITY OF MICHIGAN, published 2018).

T1: DEK (Homo sapiens, UniProt P35659 P35659:1-375)
T1 sequence: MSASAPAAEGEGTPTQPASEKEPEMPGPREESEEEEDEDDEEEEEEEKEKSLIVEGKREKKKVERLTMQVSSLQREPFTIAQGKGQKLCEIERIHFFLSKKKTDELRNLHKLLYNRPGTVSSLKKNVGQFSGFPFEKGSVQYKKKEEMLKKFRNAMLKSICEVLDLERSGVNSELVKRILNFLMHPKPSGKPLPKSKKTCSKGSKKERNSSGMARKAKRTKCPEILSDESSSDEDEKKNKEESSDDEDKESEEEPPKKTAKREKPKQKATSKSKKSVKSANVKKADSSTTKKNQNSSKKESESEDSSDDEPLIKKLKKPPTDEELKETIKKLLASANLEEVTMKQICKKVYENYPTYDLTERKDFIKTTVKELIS

B1: DEK aptamer 64 (ssDNA)
DNA: ATAGGGAGTCGACCGACCAGAAGGGGTTAAATATTCCCACATTGCCTGCGCCAGTACAAATAGTATGTGCGTCTACATCTAGACT
B2: DEK aptamer 85 (ssDNA)
DNA: ATAGGGAGTCGACCGACCAGAATACCGTGGCATCTGGTTGTAGCATCACGTCTTATGCGGCCGTATGTGCGTCTACATCTAGACT

Target: T1, DEK
Assay: Southwestern blot on denatured DEK with salmon sperm DNA competitor; 300 mM NaCl wash; not quantitated; clones preselected by dot blot filter binding
Details: tags: His-tag (pBlueBacHis2A baculovirus, HighFive cells, Ni-NTA purified); label: 5'-32P
Method: After determining the sequences of individual aptamer clones, the corresponding DNA oligonucleotides with and without 5′ and 3′ priming sequences were ordered from IDT (Coralville, Iowa), and radiolabeled with ³²P according to the NEB T4 Kinase kit protocol as above. Binding was then tested using a southwestern blot of purified DEK protein. A conventional western blot was performed using PVDF Immobillon P (EMDMillipore, Darmstadt, Germany). After the transfer, the membrane was soaked in PreHyb buffer [(10 mM Hepes (pH 7.9), 100 ug/mL salmon sperm DNA (Sigma-Aldrich, St. Louis, Mo.), 5% bovine serum albumin (Sigma-Aldrich, St. Louis, Mo.)] for 30 min on the shaker at room temperature to block the membrane. The PreHyb buffer was then removed and 5 mL of Hyb Buffer [(10 mM Hepes (pH 7.9), 50 mM NaCl, 1 mM EDTA, 1 mM DTT, 0.25% BSA, 2 ug/ul salmon sperm DNA, 50 million CPM aptamer)] was added and incubated on the shaker at room temperature for one hour. The Hyb Buffer was removed and the membrane was washed 3× on the shaker at room temperature for 20 min with wash buffer [(10 mM Hepes (pH 7.9), 300 mM NaCl, 1 mM EDTA, 1 mM DTT, 0.25% BSA)]. The membranes were dried and exposed on a Typhoon Phosphor imager (GE Healthcare, Pittsburgh, Pa.) cassette overnight to visualize the radiolabeled DNA bound to the bands corresponding to DEK protein. […] No quantitation was determined.

| Binder | binding result |
| --- | --- |
| B1 | binds |
| B2 | binds |
